B1: PF4M2 (ligand)
chain: MSAKELRCQCVKTTSQVRPRHITSLEVIKAGPHCPTAQLIATLKNGRKICLDLQAPLYKKIIKKLLES
B2: wild-type platelet factor 4 (PF4) (ligand)
chain: EAEEDGDLQCLCVKTTSQVRPRHITSLEVIKAGPHCPTAQLIATLKNGRKICLDLQAPLYKKIIKKLLES
B3: PF4M1 (ligand)
chain: EAEEDGDLRCLCVKTTSQVRPRHITSLEVIKAGPHCPTAQLIATLKNGRKICLDLQAPLYKKIIKKLLES

How the values were obtained:
[1] = target: T1, human neutrophil IL-8 receptor subtype B (huIL8Rb) (human, UniProt P25025); assay: competition with 0.5 nM 125I-labeled IL-8 on CHO cells expressing huIL8Rb
Protocol: (§1) receptor subtype B (huIL8Rb), was used in binding assays to test mutant chemokine binding. Approximately 5×10^3 cells were plated in the wells of a 96 well plate and grown for 2 to 3 days. The medium was replaced with phosphate-buffered saline (PBS) supplemented with 0.5% BSA (PBS/BSA), 0.5 nM ^125I-labeled IL-8, and increasing concentrations of the various unlabeled chemokines. The plates were incubated on ice for 90 minutes, the binding mixture was removed, and the cells were washed three times with ice-cold PBS/BSA. The cells were removed from the plates with trypsin-EDTA (Gibco), and the radioactivity of the entire contents of the well determined by gamma counting. Binding of each chemokine to untransfected cells, or binding in the presence of 2 μM unlabeled IL-8, was determined and the value obtained used as the background value. Binding data was plotted as percent of mean specific binding (total binding minus background/specific binding with no competitor). […] "NC" indicates no competition.

[2] = target: T1, human neutrophil IL-8 receptor subtype …; assay: competition with 0.5 nM 125I-labeled IL-8 on CHO cells expressing huIL8Rb; "NC" indicates no competition
Protocol: as §1

Binder | Ki [1] [nM] | binding result [2]
B1 | 52 | 
B2 |  | no binding
B3 | 839 | 

— patent US5789539, “Chemokine-like proteins and methods of use” (Repligen Corporation, dated 1998)
